In US7842469B2, “Bioluminescence resonance energy transfer (BRET) systems and methods of use thereof” (Stanford University, priority 2005, dated 2010):

Columns and labels:
[1] = Luciferase activity of purified RLuc mutants (light output integrated over 10 s, luminometer); assay type: biochemical; conditions: for Activity (relative to RLuc) bc: benzyl-coelenterazine; for Activity (relative to RLuc) bc / Activity (relative to RLuc) bdc / Activity (relative to RLuc) cp / Activity (relative to RLuc) n / Activity (relative to RLuc) native: relative to native enzyme; for Activity (relative to RLuc) bdc: bisdeoxycoelenterazine; for Activity (relative to RLuc) cp: coelenterazine-cp; for Activity (relative to RLuc) n: coelenterazine-n; for improvement in light output (activity) compared to native RLuc / Activity (relative to RLuc) native: native coelenterazine
Source text: Luminometer Calibration: Light measurements were made using a Turner 20/20 and later a Turner 20/20n luminometer (Turner Designs, Sunnyvale, Calif.). The luminometers were calibrated to absolute units (photons/s) using the luminol light standard performed in dimethyl sulfoxide (DMSO). No corrections were applied for the spectral sensitivity of the luminometer, as the spectral peak of luminol chemiluminescence in DMSO (486 nm) is close to the spectral peak of Renilla Luciferase bioluminescence (482 nm).
Characterization of Renilla Luciferase Mutants: Luciferase activity was measured by adding 1 μl of sample (diluted as necessary in EB containing 1% HSA) to 100 μl room temperature 100 mM sodium phosphate buffer (pH 7), manually adding 1 μl of 0.5 μg/μl coelenterazine or analog, manually mixing, and reading for 10 s in a luminometer. The time between the addition of the luciferin and the start of measurement was approximately 4 s.

[2] = Serum stability in rat serum at 37° C.; assay type: in vitro ADME; conditions: mono-exponential fit
Description: (§1) Serum stability measurements were done by mixing 0.5 μl dilute Luciferase with either 20 μl mouse serum or 50 μl rat serum (Equitech-Bio, Kerrville, Tex.) placing the sample in a 37° C. incubator, and removing aliquots for activity testing. To calculate serum half-lives, mono-exponential decay curves were fit to the serum stability data using a Nelder/Mead Simplex non-linear least squares minimization algorithm provided by the Octave numerical programming language. Emission spectra at ambient temperature were measured using a Triax 320 (Horiba Jobin Yvon, Edison, N.J.), which incorporates an optical grating device with a liquid N2 cooled CCD detector.

[3] = Serum stability in mouse serum at 37° C.; assay type: in vitro ADME; conditions: for Serum τ1/2 (h) mouse: 37° C., mono-exponential fit; for stability (lability) compared to the native enzyme: murine serum
Description: as §1

[4] = Bioluminescence emission spectra; assay type: physicochemical; conditions: emission spectrum with native coelenterazine
Description: as §1

Molecule | Activity (relative to RLuc) bc [1] | Activity (relative to RLuc) bdc [1] | Activity (relative to RLuc) cp [1] | Activity (relative to RLuc) n [1] | improvement in light output (activity) compared to native RLuc [1] | Activity (relative to RLuc) native [1] | Serum τ1/2 (h) rat [2] [h] | Serum τ1/2 (h) mouse [3] [h] | stability (lability) compared to the native enzyme [3] | stability (lability) compared to the native enzyme ([3]; listed as double mutant) | Wavelength (nm) mean [4] [nm] | Wavelength (nm) peak [4] [nm]
A54P/C124A: RLuc mutant A54P/C124A (protein) MASKVYDPEQRKRMITGPQWWARCKQMNVLDSFINYYDSEKHAENAVIFLHGNPASSYLWRHVVPHIEPVARCIIPDLIGMGKSGKSGNGSYRLLDHYKYLTAWFELLNLPKKIIFVGHDWGAALAFHYSYEHQDKIKAIVHAESVVDVIESWDEWPDIEEDIALIKSEEGEKMVLENNFFVETMLPSKIMRKLEPEEFAAYLEPFKEKGEVRRPTLSWPREIPLVKGGKPDVVQIVRNYNAYLRASDDLPKMFIESDPGFFSNAIVEGAKKFPNTEFVKVKGLHFSQEDAPDEMGKYIKSFVERVLKNEQ | 0.04 | 0.06 | 0.05 | 0.08 | – | 0.05 | 13 | 14 | – | – | 482 | 468
A54P/A55T/C124A: RLuc mutant A54P/A55T/C124A (protein) MASKVYDPEQRKRMITGPQWWARCKQMNVLDSFINYYDSEKHAENAVIFLHGNPTSSYLWRHVVPHIEPVARCIIPDLIGMGKSGKSGNGSYRLLDHYKYLTAWFELLNLPKKIIFVGHDWGAALAFHYSYEHQDKIKAIVHAESVVDVIESWDEWPDIEEDIALIKSEEGEKMVLENNFFVETMLPSKIMRKLEPEEFAAYLEPFKEKGEVRRPTLSWPREIPLVKGGKPDVVQIVRNYNAYLRASDDLPKMFIESDPGFFSNAIVEGAKKFPNTEFVKVKGLHFSQEDAPDEMGKYIKSFVERVLKNEQ | 0.15 | 0.22 | 0.11 | 0.38 | – | 0.21 | 129 | 119 | – | – | 483 | 470
E44G/C124A: RLuc mutant E44G/C124A (protein) MASKVYDPEQRKRMITGPQWWARCKQMNVLDSFINYYDSEKHAGNAVIFLHGNAASSYLWRHVVPHIEPVARCIIPDLIGMGKSGKSGNGSYRLLDHYKYLTAWFELLNLPKKIIFVGHDWGAALAFHYSYEHQDKIKAIVHAESVVDVIESWDEWPDIEEDIALIKSEEGEKMVLENNFFVETMLPSKIMRKLEPEEFAAYLEPFKEKGEVRRPTLSWPREIPLVKGGKPDVVQIVRNYNAYLRASDDLPKMFIESDPGFFSNAIVEGAKKFPNTEFVKVKGLHFSQEDAPDEMGKYIKSFVERVLKNEQ | 0.78 | 0.98 | 0.74 | 0.66 | – | 0.94 | 3.3 | 2.6 | – | – | 502 | 486
F116L/C124A: RLuc mutant F116L/C124A (protein) MASKVYDPEQRKRMITGPQWWARCKQMNVLDSFINYYDSEKHAENAVIFLHGNAASSYLWRHVVPHIEPVARCIIPDLIGMGKSGKSGNGSYRLLDHYKYLTAWFELLNLPKKIILVGHDWGAALAFHYSYEHQDKIKAIVHAESVVDVIESWDEWPDIEEDIALIKSEEGEKMVLENNFFVETMLPSKIMRKLEPEEFAAYLEPFKEKGEVRRPTLSWPREIPLVKGGKPDVVQIVRNYNAYLRASDDLPKMFIESDPGFFSNAIVEGAKKFPNTEFVKVKGLHFSQEDAPDEMGKYIKSFVERVLKNEQ | 1.0 | 1.8 | 1.3 | 0.88 | – | 1.3 | 9.4 | 11 | – | – | 502 | 486

Further lines, with some results ahead:

Activity (relative to RLuc) bc [1] | Activity (relative to RLuc) bdc [1] | Activity (relative to RLuc) cp [1] | Activity (relative to RLuc) n [1] | improvement in light output (activity) compared to native RLuc [1] | Activity (relative to RLuc) native [1] | Molecule | Serum τ1/2 (h) rat [2] [h] | Serum τ1/2 (h) mouse [3] [h] | stability (lability) compared to the native enzyme [3] | stability (lability) compared to the native enzyme ([3]; listed as double mutant) | Wavelength (nm) mean [4] [nm] | Wavelength (nm) peak [4] [nm]
2.7 | 20 | 14 | 7.1 | 5 fold | 4.8 | M185V/Q235A: destabilized RLuc double mutant M185V/Q235A for use as a reporter gene (protein, Chemically synthesized Renilla Luciferase, destabilized RLuc double mutant M185V/Q235A for use as a reporter gene) MASKVYDPEQRKRMITGPQWWARCKQMNVLDSFINYYDSEKHAENAVIFLHGNAASSYLWRHVVPHIEPVARCIIPDLIGMGKSGKSGNGSYRLLDHYKYLTAWFELLNLPKKIIFVGHDWGACLAFHYSYEHQDKIKAIVHAESVVDVIESWDEWPDIEEDIALIKSEEGEKMVLENNFFVETVLPSKIMRKLEPEEFAAYLEPFKEKGEVRRPTLSWPREIPLVKGGKPDVVAIVRNYNAYLRASDDLPKMFIESDPGFFSNAIVEGAKKFPNTEFVKVKGLHFSQEDAPDEMGKYIKSFVERVLKNEQ | 0.2 | 0.5 | half the stability | twice the lability | – | –
0.15 | 0.20 | 0.16 | 0.12 | – | 0.15 | F33R/I34M/C124A: RLuc mutant F33R/I34M/C124A (protein) MASKVYDPEQRKRMITGPQWWARCKQMNVLDSRMNYYDSEKHAENAVIFLHGNAASSYLWRHVVPHIEPVARCIIPDLIGMGKSGKSGNGSYRLLDHYKYLTAWFELLNLPKKIIFVGHDWGAALAFHYSYEHQDKIKAIVHAESVVDVIESWDEWPDIEEDIALIKSEEGEKMVLENNFFVETMLPSKIMRKLEPEEFAAYLEPFKEKGEVRRPTLSWPREIPLVKGGKPDVVQIVRNYNAYLRASDDLPKMFIESDPGFFSNAIVEGAKKFPNTEFVKVKGLHFSQEDAPDEMGKYIKSFVERVLKNEQ | 0.3 | 0.3 | – | – | 497 | 481
2.6 | 20 | 12 | 4.1 | about 4 fold | 4.4 | M185V: destabilized RLuc single mutant M185V (without C124A) (protein, Chemically synthesized Renilla Luciferase) MASKVYDPEQRKRMITGPQWWARCKQMNVLDSFINYYDSEKHAENAVIFLHGNAASSYLWRHVVPHIEPVARCIIPDLIGMGKSGKSGNGSYRLLDHYKYLTAWFELLNLPKKIIFVGHDWGACLAFHYSYEHQDKIKAIVHAESVVDVIESWDEWPDIEEDIALIKSEEGEKMVLENNFFVETVLPSKIMRKLEPEEFAAYLEPFKEKGEVRRPTLSWPREIPLVKGGKPDVVQIVRNYNAYLRASDDLPKMFIESDPGFFSNAIVEGAKKFPNTEFVKVKGLHFSQEDAPDEMGKYIKSFVERVLKNEQ | 0.3 | 0.8 | – | – | – | –
0.00 | 0.00 | 0.00 | 0.00 | – | 0.00 | C124A/F261L/F262L: RLuc mutant C124A/F261L/F262L (protein) MASKVYDPEQRKRMITGPQWWARCKQMNVLDSFINYYDSEKHAENAVIFLHGNAASSYLWRHVVPHIEPVARCIIPDLIGMGKSGKSGNGSYRLLDHYKYLTAWFELLNLPKKIIFVGHDWGAALAFHYSYEHQDKIKAIVHAESVVDVIESWDEWPDIEEDIALIKSEEGEKMVLENNFFVETMLPSKIMRKLEPEEFAAYLEPFKEKGEVRRPTLSWPREIPLVKGGKPDVVQIVRNYNAYLRASDDLPKMFIESDPGLLSNAIVEGAKKFPNTEFVKVKGLHFSQEDAPDEMGKYIKSFVERVLKNEQ | – | – | – | – | – | –
0.10 | 0.19 | 0.06 | 0.15 | – | 0.12 | A54G/A55G/C124A: RLuc mutant A54G/A55G/C124A (protein) MASKVYDPEQRKRMITGPQWWARCKQMNVLDSFINYYDSEKHAENAVIFLHGNGGSSYLWRHVVPHIEPVARCIIPDLIGMGKSGKSGNGSYRLLDHYKYLTAWFELLNLPKKIIFVGHDWGAALAFHYSYEHQDKIKAIVHAESVVDVIESWDEWPDIEEDIALIKSEEGEKMVLENNFFVETMLPSKIMRKLEPEEFAAYLEPFKEKGEVRRPTLSWPREIPLVKGGKPDVVQIVRNYNAYLRASDDLPKMFIESDPGFFSNAIVEGAKKFPNTEFVKVKGLHFSQEDAPDEMGKYIKSFVERVLKNEQ | 3.0 | 2.4 | – | – | 492 | 476
